B1: unnamed (parent)
chain 1: VGDDSGGFSTTVSTEQNVPDPQVGITTMKDLKGKANRGKMDVSGVQAPVGAITTIEDPVLAKKVPETFPELKPGESRHTSDHMSIYKFMGRSHFLCTFTFNSNNKEYTFPITLSSTSNPPHGLPSTLRWFFNLFQLYRGPLDLTIIITGATDVDGMAWFTPVGLAVDTPWVEKESALSIDYKTALGAVRFNTRRTGNIQIRLPWYSYLYAVSGALDGLGDKTDSTFGLVSIQIANYNHSDEYLSFSCYLSVTEQSEFYFPRAPLNSNAMLSTESMMSRIAAGDLESSVDDPRSEEDKRFESHIECRKPYKELRLEVGKQRLKYAQEELSNEVLPPPRKMKGLFSQ
chain 2: not shown
B2: unnamed (parent)
chain 1: B1 chain 1
chain 2: MAVSESQLKKMVSKYKYRDLTVRETVNVITLYKDLKPVLDSYVFNDGSSRELMNLTGTIPVPYRGNTYNIPICLWLLDTYPYNPPICFVKPTSSMTIKTGKHVDANGKIYLPYLHEWKHPQSDLLGLIQVMIVVFGDEPPVFSRPISASYPPYQATGPPNTSYMPGMPGGISPYPSGYPPNPSGYPGCPYPPGGPYPATTSSQYPSQPPVTTVGPSRDGTISEDTIRASLISAVSDKLRWRMKEEMDRAQAELNALKRTEEDLKKGHQKLEEMVTRLDQEVAEVDKNIELLKKKDEELSSALEKMENQSENNDIDEVIIPTAPLYKQILNLYAEENAIEDTIFYLGEALRRGVIDLDVFLKHVRLLSRKQFQLRALMQKARKTAGLSDLY
B3: unnamed (parent)
chain 1: B1 chain 1
chain 2: MATFISVQLKKTSEVDLAKPLVKFIQQTYPSGGEEQAQYCRAAEELSKLRRAAVGRPLDKHEGALETLLRYYDQICSIEPKFPFSENQICLTFTWKDAFDKGSLFGGSVKLALASLGYEKSCVLFNCAALASQIAAEQNLDNDEGLKIAAKHYQFASGAFLHIKETVLSALSREPTVDISPDTVGTLSLIMLAQAQEVFFLKATRDKMKDAIIAKLANQAADYFGDAFKQCQYKDTLPKEVFPVLAAKHCIMQANAEYHQSILAKQQKKFGEEIARLQHAAELIKTVASRYDEYVNVKDFSDKINRALAAAKKDNDFIYHDRVPDLKDLDPIGKATLVKSTPVNVPISQKFTDLFEKMVPVSVQQSLAAYNQRKADLVNRSIAQMREATTLANGVLASLNLPAAIEDVSGDTVPQSILTKSRSVIEQGGIQTVDQLIKELPELLQRNREILDESLRLLDEEEATDNDLRAKFKERWQRTPSNELYKPLRAEGTNFRTVLDKAVQADGQVKECYQSHRDTIVLLCKPEPELNAAIPSANPAKTMQGSEVVNVLKSLLSNLDEVKKEREGLENDLKSVNFDMTSKFLTALAQDGVINEEALSVTELDRVYGGLTTKVQESLKKQEGLLKNIQVSHQEFSKMKQSNNEANLREEVLKNLATAYDNFVELVANLKEGTKFYNELTEILVRFQNKCSDIVFARKTERDELLKDLQQSIAREPSAPSIPTPAYQSSPAGGHAPTPPTPAPRTMPPTKPQPPARPPPPVLPANRAPSATAPSPVGAGTAAPAPSQTPGSAPPPQAQGPPYPTYPGYPGYCQMPMPMGYNPYAYGQYNMPYPPVYHQSPGQAPYPGPQQPSYPFPQPPQQSYYPQQ

Variants of: B1
Assay: protein-fragment complementation assay (split Gaussia luciferase, GLuc2 bait / GLuc1 prey)
Settings: with partner chain of the complex shown;; read off a plot

Variant | response (Log2 normalized LU)
chain 1 Y309A K310A E311A L312A | 3

Variants of: B2
Assay: as above
Settings: with partner chain of the complex shown;; read off a plot

Variant | response (Log2 normalized LU)
chain 1 Y309A K310A E311A L312A | 4.4

Variants of: B3
Assay: as above
Settings: with partner chain of the complex shown;; read off a plot

Variant | response (Log2 normalized LU)
chain 1 Y309A K310A E311A L312A | 4.7

From publication PMC9410543
